# Data reported in paper PMC9881156, “POT-3 preferentially binds the terminal DNA-repeat on the telomeric G-overhang”.
# T1: POT-3 (Caenorhabditis elegans, UniProt G5EFG7 1-215)
# T1 sequence: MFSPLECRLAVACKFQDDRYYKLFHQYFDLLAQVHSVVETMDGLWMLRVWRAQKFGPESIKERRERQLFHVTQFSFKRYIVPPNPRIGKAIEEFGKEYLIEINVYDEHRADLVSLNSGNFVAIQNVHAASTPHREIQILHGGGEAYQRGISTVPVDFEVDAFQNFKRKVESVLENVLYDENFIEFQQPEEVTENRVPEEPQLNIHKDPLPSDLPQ
# T2: POT-2 (Caenorhabditis elegans, UniProt O45595 1-251)
# T2 sequence: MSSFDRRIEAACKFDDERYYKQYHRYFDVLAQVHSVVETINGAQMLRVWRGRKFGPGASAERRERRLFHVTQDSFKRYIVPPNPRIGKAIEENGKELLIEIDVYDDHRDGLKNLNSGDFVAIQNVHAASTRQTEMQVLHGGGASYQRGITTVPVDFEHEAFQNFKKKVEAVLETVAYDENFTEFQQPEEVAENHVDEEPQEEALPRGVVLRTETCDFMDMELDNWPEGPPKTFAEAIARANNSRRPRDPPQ
# What was measured:
# POT-3 [1] = molecular target: T1, POT-3; assay: EMSA; details: apparent, EMSA: 20 mM Tris-HCl pH 8.0, 50 mM NaCl, 1 mM MgCl2, 5 mM DTT, 50 ug/ml BSA, 4% Ficoll 400, on ice 10 min, competition and S4 Kd: same salts with 0.001% …
# POT-2 [2] = molecular target: T2, POT-2; assay: EMSA; details: apparent, EMSA: 20 mM Tris-HCl pH 8.0, 50 mM NaCl, 1 mM MgCl2, 5 mM DTT, 50 ug/ml BSA, 4% Ficoll 400, on ice 10 min, competition and S4 Kd: same salts with 0.001% …
# POT-3 [3] = molecular target: T1, POT-3; assay: analytical gel filtration; 1 protein per DNA; 500 mM NaCl; EMSA: 20 mM Tris-HCl pH 8.0, 50 mM NaCl, 1 mM MgCl2, 5 mM DTT, 50 ug/ml BSA, 4% Ficoll 400, on ice 10 min; competition and S4 Kd: same salts with 0.001% Tween-20, room temperature; gel filtration: 20 mM Tris-HCl pH 8.0, 500 mM NaCl, 10 mM DTT, 10% glycerol (binding); details: protein: recombinant; tags: 6xHis
# POT-2 [4] = molecular target: T2, POT-2; assay: as above; details: protein: recombinant; tags: 6xHis
# POT-3 [5] = molecular target: T1, POT-3; assay: analytical gel filtration; 3 proteins per DNA; 500 mM NaCl; EMSA: 20 mM Tris-HCl pH 8.0, 50 mM NaCl, 1 mM MgCl2, 5 mM DTT, 50 ug/ml BSA, 4% Ficoll 400, on ice 10 min; competition and S4 Kd: same salts with 0.001% Tween-20, room temperature; gel filtration: 20 mM Tris-HCl pH 8.0, 500 mM NaCl, 10 mM DTT, 10% glycerol (binding); details: protein: recombinant; tags: 6xHis
# POT-2 [6] = molecular target: T2, POT-2; assay: as above; details: protein: recombinant; tags: 6xHis
molecule,measurement,setting,value
"fragment 7 / 12mer, (TTAGGC)2 3' overhang",Kd,POT-3 [1]; on ice,0.16 nM
same,Kd,POT-3 [1]; room temperature,5 nM
same,Kd,POT-2 [2]; on ice,0.1 nM
same,Kd,POT-2 [2]; room temperature,7.2 nM
TTAGGCTTAGGC (ssDNA) [(TTAGGC)2 ssDNA],binding result,POT-3 [3],binds
same,binding result,POT-2 [4],binds
TTAGGCTTAGGCTTAGGCTTAGGC (ssDNA) [(TTAGGC)4 ssDNA],binding result,POT-3 [5],binds
same,binding result,POT-2 [6],binds
